Source: the supplement of paper PMC9233669
Fewer inactive variants are shown than the library holds.

What was measured:
[1] = test system: biotinyl-Ile-oxazolone; assay: self-aminoacylation, catalytic enhancement (BIO) (fold over background); higher = more active; k-Seq, kA / k0A0; sequences stand for … in GGGAAUGGAUCCACAUCUACGAAUUC…UUCACUGCAGACUUGACGAAGCUG
Outline: (§1)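 Working in 50 μL HEPES/NaCl/KCl/MgCl2/CaCl2 buffer with 5% acetonitrile at pH 6.9–7.0, mutagenized RNA pools (0.43 μM; 21-nt variable region) were reacted with 2–1250 μM of each biotinyl-aminoacyl-oxazolone for 90 minutes at room temperature. Streptavidin capture followed, with quantification by triplicate qPCR and Illumina sequencing. Catalytic enhancement is reported as median kA over the uncatalyzed rate, the low-activity peak of a bimodal Gaussian fit to the data.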

[2] = test system: biotinyl-Phe-oxazolone; assay: self-aminoacylation, catalytic enhancement (BFO) (fold over background); higher = more active; k-Seq, kA / k0A0; sequences stand for … in GGGAAUGGAUCCACAUCUACGAAUUC…UUCACUGCAGACUUGACGAAGCUG
Outline: as §1

[3] = test system: biotinyl-Met-oxazolone; assay: self-aminoacylation, catalytic enhancement (BMO) (fold over background); higher = more active; k-Seq, kA / k0A0; sequences stand for … in GGGAAUGGAUCCACAUCUACGAAUUC…UUCACUGCAGACUUGACGAAGCUG
Outline: as §1

[4] = test system: biotinyl-Val-oxazolone; assay: self-aminoacylation, catalytic enhancement (BVO) (fold over background); higher = more active; k-Seq, kA / k0A0; sequences stand for … in GGGAAUGGAUCCACAUCUACGAAUUC…UUCACUGCAGACUUGACGAAGCUG
Outline: as §1

[5] = test system: biotinyl-Trp-oxazolone; assay: self-aminoacylation, catalytic enhancement (BWO) (fold over background); higher = more active; k-Seq, kA / k0A0; sequences stand for … in GGGAAUGGAUCCACAUCUACGAAUUC…UUCACUGCAGACUUGACGAAGCUG
Outline: as §1

[6] = test system: biotinyl-Leu-oxazolone; assay: self-aminoacylation, catalytic enhancement (BLO) (fold over background); higher = more active; k-Seq, kA / k0A0; sequences stand for … in GGGAAUGGAUCCACAUCUACGAAUUC…UUCACUGCAGACUUGACGAAGCUG
Outline: as §1

| Sequence | self-aminoacylation [1] | self-aminoacylation [2] | self-aminoacylation [3] | self-aminoacylation [4] | self-aminoacylation [5] | self-aminoacylation [6] |
| --- | --- | --- | --- | --- | --- | --- |
| CCACACUACAAGCAAUCGGUG [Fam1B.1 aminoacylation ribozyme variant] | 3.62 | 31.8 | 4.92 | 2.85 | 5.03 | 6.9 |
| CCACACUACAAGCAAUCUGUC [Fam1B.1 aminoacylation ribozyme variant] | 0.496 | 0.747 | 0.271 | 0.566 | 0.353 | 0.49 |
| CCACACUACAAGCGAUCGGUC [Fam1B.1 aminoacylation ribozyme variant] | 1.09 | 0.866 | 0.977 | 1.29 | 1.03 | 1.24 |
| CCACACUACAAGGAAUCGGUC [Fam1B.1 aminoacylation ribozyme variant] | 1.01 | 0.823 | 0.84 | 1.03 | 0.681 | 0.947 |
| CCACACUACAUGCAAUCGGUC [Fam1B.1 aminoacylation ribozyme variant] | 0.737 | 0.877 | 0.743 | 0.888 | 0.812 | 0.762 |
| CCACACUCCAAGCAAUCGGGC [Fam1B.1 aminoacylation ribozyme variant] | 2.01 | 1.07 | 1.31 | 2.08 | 2.55 | 1.65 |
| CCACACUCCAAGCAAUCGGUA [Fam1B.1 aminoacylation ribozyme variant] | 1.15 | 0.936 | 0.699 | 1.34 | 1.25 | 1.27 |
| CCACACUCCAAGCAAUCGGUC [Fam1B.1 aminoacylation ribozyme variant] | 0.984 | 2.6 | 0.789 | 1.08 | 1.59 | 0.855 |
| CCACACUCCAAGGAAUCGGUC [Fam1B.1 aminoacylation ribozyme variant] | 1.35 | 1.46 | 1.32 | 1.31 | 1.34 | 1.08 |
| CCACACUGCAAGCAAUCGGCC [Fam1B.1 aminoacylation ribozyme variant] | 3.29 | 20.5 | 2.93 | 5.56 | 3.9 | 1.99 |
| CCACACUGCAAGCAAUCGGUG [Fam1B.1 aminoacylation ribozyme variant] | 3.4 | 31.5 | 4.9 | 3.12 | 5.82 | 7.11 |
| CCACACUGCAAGGAAUCGGUC [Fam1B.1 aminoacylation ribozyme variant] | 1.39 | 3.84 | 1.35 | 1.32 | 1.51 | 1.3 |
| CCACACUGCCAGCAAUCGGUC [Fam1B.1 aminoacylation ribozyme variant] | 1.5 | 2.23 | 1.36 | 1.58 | 1.39 | 1.47 |
| CCACACUGUAAGCAAUCGGUC [Fam1B.1 aminoacylation ribozyme variant] | 1.06 | 0.898 | 0.953 | 1.14 | 1.16 | 1.09 |
| CCACACUUAAAGAAAUCGGUC [Fam1B.1 aminoacylation ribozyme variant] | 0.754 | 0.562 | 0.734 | 0.785 | 0.679 | 0.749 |
| CCACACUUAAAGCAAUCCGUC [Fam1B.1 aminoacylation ribozyme variant] | 0.998 | 0.452 | 0.879 | 1.17 | 0.523 | 0.838 |
| CCACACUUAAAGCCAUCGGUC [Fam1B.1 aminoacylation ribozyme variant] | 0.992 | 0.617 | 0.801 | 1.11 | 1.06 | 0.913 |
| CCACACUUCAAACAAUCGCUC [Fam1B.1 aminoacylation ribozyme variant] | 1.1 | 1.32 | 0.869 | 1.33 | 0.765 | 1.29 |
| CCACACUUCAAACAAUCGGCC [Fam1B.1 aminoacylation ribozyme variant] | 1.77 | 8.32 | 1.96 | 2.19 | 7.9 | 1.61 |
| CCACACUUCAAACAAUCGGUA [Fam1B.1 aminoacylation ribozyme variant] | 0.873 | 1.62 | 0.947 | 1.02 | 1.47 | 0.734 |
| CCACACUUCAAACAUUCGGUC [Fam1B.1 aminoacylation ribozyme variant] | 1.49 | 0.837 | 1.47 | 1.4 | 1.32 | 1.45 |
| CCACACUUCAACCAAUCGGGC [Fam1B.1 aminoacylation ribozyme variant] | 1.91 | 3.78 | 1.75 | 2.93 | 2.09 | 2.24 |
| CCACACUUCAACCAAUCGGUA [Fam1B.1 aminoacylation ribozyme variant] | 1.1 | 1.08 | 1.56 | 1.1 | 1.63 | 0.859 |
| CCACACUUCAACCAAUCGGUC [Fam1B.1 aminoacylation ribozyme variant] | 1.38 | 60.5 | 1.38 | 1.5 | 35.2 | 2.17 |
| CCACACUUCAACCACUCGGUC [Fam1B.1 aminoacylation ribozyme variant] | 1.18 | 0.849 | 1.24 | 1.28 | 0.978 | 1.1 |
| CCACACUUCAACCCAUCGGUC [Fam1B.1 aminoacylation ribozyme variant] | 1.34 | 0.791 | 1.11 | 1.72 | 1.04 | 1.24 |

| Sequence | self-aminoacylation [1] | self-aminoacylation [2] | self-aminoacylation [3] | self-aminoacylation [4] | self-aminoacylation [5] | self-aminoacylation [6] |
| --- | --- | --- | --- | --- | --- | --- |
| CCACACUUCAAGAAAUCUGUC [Fam1B.1 aminoacylation ribozyme variant] | 0.306 | 0.421 | 0.349 | 0.402 | 0.349 | 0.292 |
| CCACACUUCAAGACAUCGGUC [Fam1B.1 aminoacylation ribozyme variant] | 1 | 0.815 | 0.914 | 0.896 | 0.762 | 0.879 |
| CCACACUUCAAGCAAACGAUC [Fam1B.1 aminoacylation ribozyme variant] | 0.513 | 0.772 | 0.44 | 0.589 | 0.585 | 0.422 |
| CCACACUUCAAGCAACCAGUC [Fam1B.1 aminoacylation ribozyme variant] | 1.08 | 1.26 | 1.04 | 0.941 | 0.79 | 0.725 |
| CCACACUUCAAGCAACCCGUC [Fam1B.1 aminoacylation ribozyme variant] | 1.14 | 0.819 | 0.779 | 1.17 | 0.843 | 0.763 |
| CCACACUUCAAGCAACCGGUG [Fam1B.1 aminoacylation ribozyme variant] | 3.92 | 33.9 | 5.05 | 4 | 6.05 | 7.08 |
| CCACACUUCAAGCAAGCGGAC [Fam1B.1 aminoacylation ribozyme variant] | 0.959 | 0.42 | 1.16 | 1.15 | 0.604 | 0.794 |
| CCACACUUCAAGCAAGCGGGC [Fam1B.1 aminoacylation ribozyme variant] | 1.61 | 6.38 | 2.41 | 2.29 | 2.67 | 1.59 |
| CCACACUUCAAGCAAGUGGUC [Fam1B.1 aminoacylation ribozyme variant] | 0.441 | 0.777 | 0.43 | 0.611 | 0.536 | 0.449 |
| CCACACUUCAAGCAAUAGUUC [Fam1B.1 aminoacylation ribozyme variant] | 0.703 | 1.21 | 0.501 | 0.644 | 0.431 | 0.55 |
| CCACACUUCAAGCAAUCCGAC [Fam1B.1 aminoacylation ribozyme variant] | 0.612 | 0.729 | 0.516 | 0.703 | 0.28 | 0.586 |
| CCACACUUCAAGCAAUCCGGC [Fam1B.1 aminoacylation ribozyme variant] | 3.02 | 1.71 | 3.54 | 3.66 | 2.1 | 2.88 |
| CCACACUUCAAGCAAUCCGUA [Fam1B.1 aminoacylation ribozyme variant] | 0.876 | 0.597 | 0.668 | 1.04 | 0.837 | 0.927 |
| CCACACUUCAAGCAAUCCGUG [Fam1B.1 aminoacylation ribozyme variant] | 2.79 | 26.9 | 3.21 | 2.47 | 2.78 | 5.32 |
| CCACACUUCAAGCAAUCGCGC [Fam1B.1 aminoacylation ribozyme variant] | 2.08 | 6.7 | 2.16 | 3.35 | 2.44 | 3.04 |
| CCACACUUCAAGCAAUCGGCA [Fam1B.1 aminoacylation ribozyme variant] | 1.18 | 1.07 | 0.777 | 1.37 | 1.28 | 1.59 |
| CCACACUUCAAGCAAUCGGGA [Fam1B.1 aminoacylation ribozyme variant] | 1.55 | 1.46 | 1.51 | 1.8 | 1.87 | 1.04 |
| CCACACUUCAAGCAAUCGGGG [Fam1B.1 aminoacylation ribozyme variant] | 1.71 | 1.38 | 1.21 | 2.19 | 2.3 | 2.28 |
| CCACACUUCAAGCAAUCGGGU [Fam1B.1 aminoacylation ribozyme variant] | 1.51 | 0.915 | 1.41 | 1.8 | 1.06 | 1.87 |
| CCACACUUCAAGCAAUCGGUG [Fam1B.1 aminoacylation ribozyme variant] | 3.68 | 17.1 | 5.19 | 3.68 | 5.45 | 7.2 |
| CCACACUUCAAGCAAUCGUUC [Fam1B.1 aminoacylation ribozyme variant] | 0.714 | 1.31 | 0.57 | 0.845 | 0.675 | 0.579 |
| CCACACUUCAAGCAAUCGUUG [Fam1B.1 aminoacylation ribozyme variant] | 0.944 | 1.26 | 0.877 | 0.908 | 1.15 | 0.776 |
| CCACACUUCAAGCAAUCUGUC [Fam1B.1 aminoacylation ribozyme variant] | 0.368 | 0.824 | 0.34 | 0.518 | 0.369 | 0.327 |
| CCACACUUCAAGCAAUUGGAC [Fam1B.1 aminoacylation ribozyme variant] | 0.72 | 0.614 | 0.664 | 0.697 | 0.337 | 0.583 |
| CCACACUUCAAGCAAUUGGUC [Fam1B.1 aminoacylation ribozyme variant] | 0.702 | 1.43 | 0.625 | 0.707 | 0.858 | 0.594 |
